Laboratory results from US20230203538A1.

Assays:
[1] = molecular target: CD5 on murine T cells (mouse) (UniProt P13379); assay: cell-based or functional assay
[2] = molecular target: CD5 on human ACH2 immortalized T cells (human) (UniProt P06127); assay: cell-based or functional assay
Chain of UniProt P06127 (P06127 25-495 limits assumed): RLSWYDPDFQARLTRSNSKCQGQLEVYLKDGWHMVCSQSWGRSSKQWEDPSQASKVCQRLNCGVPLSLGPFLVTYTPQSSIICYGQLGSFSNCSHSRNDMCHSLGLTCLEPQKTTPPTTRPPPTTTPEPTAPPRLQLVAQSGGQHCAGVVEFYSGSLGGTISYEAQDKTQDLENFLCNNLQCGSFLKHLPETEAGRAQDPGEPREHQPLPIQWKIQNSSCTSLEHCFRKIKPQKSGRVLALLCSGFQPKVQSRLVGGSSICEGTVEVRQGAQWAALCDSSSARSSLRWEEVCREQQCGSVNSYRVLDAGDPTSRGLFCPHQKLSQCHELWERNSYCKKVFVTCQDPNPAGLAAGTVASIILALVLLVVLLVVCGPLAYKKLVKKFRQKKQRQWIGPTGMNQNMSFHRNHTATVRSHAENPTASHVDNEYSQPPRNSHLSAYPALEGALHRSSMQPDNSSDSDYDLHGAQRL

Chain of UniProt P13379 (P13379 24-494 limits assumed): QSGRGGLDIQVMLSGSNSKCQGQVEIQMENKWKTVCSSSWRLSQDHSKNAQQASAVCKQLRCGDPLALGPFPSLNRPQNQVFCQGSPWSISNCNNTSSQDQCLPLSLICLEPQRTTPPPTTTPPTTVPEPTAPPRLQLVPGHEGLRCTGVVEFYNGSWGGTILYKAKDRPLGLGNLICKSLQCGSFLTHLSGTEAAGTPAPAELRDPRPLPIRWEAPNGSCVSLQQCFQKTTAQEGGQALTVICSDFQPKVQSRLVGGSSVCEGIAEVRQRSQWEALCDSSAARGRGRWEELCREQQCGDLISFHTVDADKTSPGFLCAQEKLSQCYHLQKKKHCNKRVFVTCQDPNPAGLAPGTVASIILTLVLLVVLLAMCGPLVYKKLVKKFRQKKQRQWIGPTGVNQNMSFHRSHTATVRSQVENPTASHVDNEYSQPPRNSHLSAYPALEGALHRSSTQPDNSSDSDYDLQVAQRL

## control isotype matched IgG conjugated to LNP-mRNA (antibody)
[1]
  percent of murine T cells that received mRNA from IgG/LNP-FAPCAR (flow cytometry): 7%

## mouse anti-human CD5, clone UCHT2 (BioLegend), conjugated to LNP-mRNA (antibody)
[2]
  percent gene transfer (GFP) in human ACH2 T cells 24 hours after mixing with CD5/LNP-GFP: 89 to 93%

## purified rat anti-mouse CD5, clone 53-7.3 (BioLegend), conjugated to LNP-mRNA (antibody)
[1]
  percent of murine T cells expressing FAPCAR 48 hours after incubation with CD5/LNP-FAPCAR (flow cytometry): 83%
  percent of murine T cells expressing GFP 48 hours after incubation with CD5/LNP-GFP (flow cytometry): 78%
